{
  "source": "IntAct's records for PubMed 17403664",
  "parents": {"B1": {"name": "Differentially expressed in FDCP 6 (Mus musculus), Q8C2K1 (parent)", "chain": "MALRKELLKSIWYAFTALDVEKSGKVSKSQLKVLSHNLYTVLNIPHDPVALEEHFRDDDDGPVSSQGYMPYLNKYILDKVEEGAFVKEHFDELCWTLTAKKNYRADGIGSSPLSNQDAFRLWCLFNFLSEDKYPLIMVPDEVEYLLKKLLGSLSLEMGLGELEELLAQDAQSAQTAVGLSVWQFLELFNSGRCLRGVGRDSLSMAIQEVYQELIQDVLKQGYLWKRGHLRRNWAERWFQLQPSSLCYFGSEECKEKRGTIPLDAHCCVEVLPDREGKRCMFCVKTASRTYEMSASDTRQRQEWTAAIQTAIRLQAEGKTSLHKDLKQKRREQREQRERRRAAKEEELLRLQQLQEEKERKLQELELLQEAQRQAERLLQEEEERRRSQHKELQQALEGQLREAEQARASMQAEMELKKEEAARQRQRIAELEEMQERLQEALQLEVKARRDEEAVRLAQTRLLEEEEEKLKQLMHLKEEQERYIERAQQEKQELQQEMALQSRSLQHAQQQLEEVRQNRQRADEDVEAAQRKLRQASTNVKHWNVQMNRLMHPIEPGDKRPTTSSSFTGFQPPPLARRDSSLKRLTRWGSQGNRTLSVNSSEQKSLNGGDETPILALASQEEKLDPAPGN", "partner": "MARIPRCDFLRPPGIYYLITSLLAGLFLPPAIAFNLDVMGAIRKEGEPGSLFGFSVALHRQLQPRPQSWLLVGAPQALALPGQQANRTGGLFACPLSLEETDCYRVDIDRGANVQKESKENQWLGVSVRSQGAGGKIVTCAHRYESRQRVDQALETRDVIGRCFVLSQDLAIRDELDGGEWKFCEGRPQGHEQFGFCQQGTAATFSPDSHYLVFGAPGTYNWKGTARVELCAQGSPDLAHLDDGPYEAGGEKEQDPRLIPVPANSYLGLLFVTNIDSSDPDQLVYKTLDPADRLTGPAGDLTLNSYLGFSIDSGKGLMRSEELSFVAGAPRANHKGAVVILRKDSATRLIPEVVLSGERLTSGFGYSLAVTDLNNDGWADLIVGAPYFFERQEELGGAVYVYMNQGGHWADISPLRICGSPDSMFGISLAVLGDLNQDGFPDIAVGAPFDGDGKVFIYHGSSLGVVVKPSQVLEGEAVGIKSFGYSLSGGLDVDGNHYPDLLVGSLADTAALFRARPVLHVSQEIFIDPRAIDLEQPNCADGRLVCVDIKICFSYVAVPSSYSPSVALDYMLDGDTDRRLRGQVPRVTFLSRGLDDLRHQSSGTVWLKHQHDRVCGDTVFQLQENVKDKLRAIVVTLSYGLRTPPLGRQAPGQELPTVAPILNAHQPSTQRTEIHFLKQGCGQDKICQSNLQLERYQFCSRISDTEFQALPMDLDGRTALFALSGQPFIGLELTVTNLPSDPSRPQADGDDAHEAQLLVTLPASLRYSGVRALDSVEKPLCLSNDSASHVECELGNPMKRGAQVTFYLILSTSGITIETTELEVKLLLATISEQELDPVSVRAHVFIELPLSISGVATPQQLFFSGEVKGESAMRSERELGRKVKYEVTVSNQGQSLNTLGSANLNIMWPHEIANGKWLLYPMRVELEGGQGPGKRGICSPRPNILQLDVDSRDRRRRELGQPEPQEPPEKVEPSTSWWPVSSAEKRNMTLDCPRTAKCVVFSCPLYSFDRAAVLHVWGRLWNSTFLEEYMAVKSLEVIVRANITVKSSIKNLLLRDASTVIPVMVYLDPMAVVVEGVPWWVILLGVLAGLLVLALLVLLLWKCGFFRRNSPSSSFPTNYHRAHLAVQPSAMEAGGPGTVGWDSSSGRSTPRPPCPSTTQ"}},
  "data": [
    {"variants_of": "B1", "conditions": "with Itga7, Q61738-6", "values": [
      {"variant": "Y210E", "effect of a mutation on the interaction": "decreasing interaction"}
    ]}
  ]
}
